Biological target: truncated cycD1 (16-267) (human, UniProt P24385 16-267)
Assay: crystal structure

Sequence of truncated cycD1 (16-267) (P24385 16-267): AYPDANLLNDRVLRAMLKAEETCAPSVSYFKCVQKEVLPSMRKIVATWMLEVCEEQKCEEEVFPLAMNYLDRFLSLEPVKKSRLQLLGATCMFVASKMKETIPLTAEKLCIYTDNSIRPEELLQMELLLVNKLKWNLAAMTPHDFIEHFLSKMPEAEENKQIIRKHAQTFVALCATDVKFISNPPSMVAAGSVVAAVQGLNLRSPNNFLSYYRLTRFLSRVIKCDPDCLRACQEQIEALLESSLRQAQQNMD

B1: p27(3E) (p27^KID 25-93 with glutamate phosphomimetics at Y74, Y88 and Y89) (domain or fragment, human, UniProt P46527 25-93, looked up)
chain: KPSACRNLFGPVDHEELTRDLEKHCRDMEEASQRKWNFDFQNHKPLEGKEEWQEVEKGSLPEFEERPPR
- binding result: binds

— paper PMC7592119 (Science (New York, N.Y.), 2019)
